Experimental data reported in paper doi:10.1101/340778 (bioRxiv, 2018).

Biological target: J-base Binding Protein 1 (JBP1) (Leishmania tarentolae (assumed; species …, UniProt Q9U6M1)
Experiment: SPR

Chain of J-base Binding Protein 1 (JBP1) (Leishmania tarentolae (Q9U6M1 whole entry): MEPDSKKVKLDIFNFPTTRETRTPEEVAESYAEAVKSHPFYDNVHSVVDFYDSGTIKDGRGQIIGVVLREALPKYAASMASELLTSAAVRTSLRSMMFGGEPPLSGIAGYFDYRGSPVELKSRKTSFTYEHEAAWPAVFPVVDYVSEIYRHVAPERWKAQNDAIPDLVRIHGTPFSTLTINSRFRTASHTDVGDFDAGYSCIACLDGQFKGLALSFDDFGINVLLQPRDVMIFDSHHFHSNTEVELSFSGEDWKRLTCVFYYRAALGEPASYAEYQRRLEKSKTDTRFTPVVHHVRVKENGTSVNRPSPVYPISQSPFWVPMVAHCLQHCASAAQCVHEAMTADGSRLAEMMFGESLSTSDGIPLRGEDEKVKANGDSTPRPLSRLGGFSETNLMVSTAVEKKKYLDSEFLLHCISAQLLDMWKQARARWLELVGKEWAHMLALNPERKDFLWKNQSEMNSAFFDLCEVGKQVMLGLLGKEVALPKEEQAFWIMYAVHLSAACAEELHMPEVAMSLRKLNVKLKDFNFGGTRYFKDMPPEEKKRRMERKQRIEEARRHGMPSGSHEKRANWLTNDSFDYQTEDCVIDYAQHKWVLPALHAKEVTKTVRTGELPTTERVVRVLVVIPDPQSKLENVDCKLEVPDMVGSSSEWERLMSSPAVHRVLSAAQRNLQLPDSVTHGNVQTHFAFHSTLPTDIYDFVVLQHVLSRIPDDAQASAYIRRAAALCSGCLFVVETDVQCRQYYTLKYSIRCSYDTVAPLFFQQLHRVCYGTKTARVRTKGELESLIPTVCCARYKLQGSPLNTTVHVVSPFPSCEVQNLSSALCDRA

B1: nanobody-6 (Nb6) (VHH)
VHH: QVQLVESGGGLVQAGGSLRLSCAASGSFFSINDMGWYRQAPGKQRELVAVISSGGSTNYADSVEGRSTISSDNAKNTVYLQLSSLKPEDTAVYYCNANVRLREYRTTSYHYWGQGTQVTVSS
With B1 the Kd was 30 nM.
